By Kd is commonly meant the equilibrium constant for the complex coming apart. Low readings indicate higher affinity, high ones lower affinity.

This experiment has as its target 21480B. The experiment in a line: Octet.

B1: IL2Rbeta (receptor)
chain: AVNGTSQFTCFYNSRANISCVWSQDGALQDTSCQVHAWPDRRRWNQTCELLPVSQASWACNLILGAPDSQKLTTVDIVTLRVLCREGVRWRVMAIQDFKPFENLRLMAPISLQVVHVETHRCNISWEISQASHYFERHLEFEARTLSPGHTWEEAPLLTLKQKQEWICLETLTPDTQYEFQVRVKPLQGEFTTWSPWSQPLAFRTKPAALGKD
For B1, binding was put at a Kd of 8.1 nM.

Values taken from US20230220081A1 (published 2023).
